From publication PMC6082628 come the findings set out here.

The target of data set [1] is T1, Act1 SEFIR (mouse, UniProt Q8N7N6 391-537).
T1 sequence: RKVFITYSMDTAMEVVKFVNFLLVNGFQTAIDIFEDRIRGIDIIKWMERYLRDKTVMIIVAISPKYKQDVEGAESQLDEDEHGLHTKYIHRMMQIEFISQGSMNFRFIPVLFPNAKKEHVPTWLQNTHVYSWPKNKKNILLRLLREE
As to the kind of experiment: EMSA.

In data set [2] the target is T1, Act1 SEFIR. As to the kind of experiment: EMSA. This is another data set of the same source.
Data set [3] deals with T1, Act1 SEFIR. In words: competition.
In data set [4] the target is T1, Act1 SEFIR. As to the kind of experiment: competition. This is another data set of the same source.

In the case of CCUUGGACAUUUUGUGUCUAGUUGGUAGGGCAUAAUGGGGUUUUACA (ssRNA) [Stem-loop C CCC to GGG], in the data set with Act1 SEFIR [1], the binding result is recorded as “no binding”.

Take CCUUGGACAUUUUGUGUCUAGUUGGUACCCCAUAAUGGGGUUUUACA (structured_RNA) [SBE stem swap]: the binding result in the data set with Act1 SEFIR [2] is given as “binds”.

B1: Cxcl1 220-II (structured_RNA)
RNA: GUUGGUAGGGCAUAAUGCCCUUUUACAUUCUUUAACCCUGUUUCUCCUGGUCUCGUCUCGCUCGGGACAGAGACGUUCAAAGGACUGUUACAAAUGAAGUAAAAAUAAAAG
Turning to B1, the binding result with Act1 SEFIR [1] is “binds”.

For CCUUGGACAUUUUGUGUCUAGUUGGUAAAACAUAAUGCCCUUUUACA (ssRNA) [SBE mutant C], in the data set with Act1 SEFIR [1], the binding result was “no binding”.

For CCUUGGACAUUUUGUGUCUAGUUGGUAAAACAUAAUGCCCUUUUACA (ssRNA, 2'-O-methyl on the first three residues at 5' and 3' ends (as ordered)) [SBE mutant C aptamer (competitor)], the binding result with Act1 SEFIR [3] was “no binding”.

Take CCUUGGACAUUUUGUGUCUAGUUGGUAGGGCAUAAUGCCCUUUUACA (structured_RNA, 2'-O-methyl on the first three residues at 5' and 3' ends (as ordered)) [SBE WT aptamer (competitor)]: the binding result with Act1 SEFIR [4] is reported as “binds”.
